The values that follow come from US20210347873A1 (SHANGHAI PHARMAEXPLORER, published 2021).

Assay [1] addresses cynomolgus BLyS (full length, arginine to histidine at position 132) on CHO-K1 cells (cynomolgus). The assay is described as follows: flow cytometry, CHO-K1 cynoBLyS cells, antibody 0.107 nM. On the technique in general: A flow cytometer gives signals particle by particle.
Assay [2] deals with human BLyS (full length, arginine to histidine at position 132) on CHO-K1 cells (human) (UniProt Q9Y275). In words: flow cytometry, CHO-K1 hBLyS cells, antibody 0.00427 nM.
Chain of human BLyS (full length, arginine to histidine at position 132) on CHO-K1 cells (human) (Q9Y275 whole entry R130H): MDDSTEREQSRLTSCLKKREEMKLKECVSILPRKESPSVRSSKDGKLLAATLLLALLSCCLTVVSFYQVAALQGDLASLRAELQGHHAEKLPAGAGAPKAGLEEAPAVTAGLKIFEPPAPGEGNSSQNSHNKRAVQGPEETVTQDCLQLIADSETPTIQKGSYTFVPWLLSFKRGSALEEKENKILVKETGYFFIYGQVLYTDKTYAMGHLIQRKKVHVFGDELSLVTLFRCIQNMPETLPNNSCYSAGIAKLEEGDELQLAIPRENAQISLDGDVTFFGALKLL
Assay [3] shares this target. In words: flow cytometry, CHO-K1 hBLyS cells, antibody 0.107 nM.
The target of assay [4] is biotinylated hBLyS-ECD (human) (UniProt Q9Y275). The assay is described as follows: ELISA, biotinylated hBLyS-ECD captured on streptavidin; antibody 0.107 nM. Background: In an ELISA, binding on a coated surface is turned into a signal by an enzyme label.
Chain of biotinylated hBLyS-ECD (human) (Q9Y275 134-285): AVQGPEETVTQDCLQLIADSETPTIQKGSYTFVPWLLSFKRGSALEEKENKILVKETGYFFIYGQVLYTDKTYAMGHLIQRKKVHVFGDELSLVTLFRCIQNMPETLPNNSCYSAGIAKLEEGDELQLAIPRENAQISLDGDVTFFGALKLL
Assay [5] shares this target. The assay is described as follows: blocking ELISA: biotinylated hBLyS-ECD on coated BAFF R, antibody 0.00128 nM.
Assay [6] shares this target. In words: blocking ELISA: biotinylated hBLyS-ECD on coated BAFF R, antibody 0.032 nM.
Assay [7] concerns the target cynomolgus BLyS (full length, arginine to histidine at position 132) on CHO-K1 cells (cynomolgus). The assay is described as follows: flow cytometry, CHO-K1 cynoBLyS cells, antibody 0 nM.
Assay [8] shares this target. In words: flow cytometry, CHO-K1 cynoBLyS cells, antibody 0.0213 nM.
Assay [9] deals with human BLyS (full length, arginine to histidine at position 132) on CHO-K1 cells (human) (UniProt Q9Y275). The assay is described as follows: flow cytometry, CHO-K1 hBLyS cells, antibody 66.7 nM.
For assay [10], the target named is cynomolgus BLyS (full length, arginine to histidine at position 132) on CHO-K1 cells (cynomolgus). In words: flow cytometry, CHO-K1 cynoBLyS cells, antibody 66.7 nM.
Chain of cynomolgus BLyS (full length, arginine to histidine at position 132) on CHO-K1 cells (cynomolgus) (Q9Y275 other isoform, or with tags, fused parts or gaps limits assumed): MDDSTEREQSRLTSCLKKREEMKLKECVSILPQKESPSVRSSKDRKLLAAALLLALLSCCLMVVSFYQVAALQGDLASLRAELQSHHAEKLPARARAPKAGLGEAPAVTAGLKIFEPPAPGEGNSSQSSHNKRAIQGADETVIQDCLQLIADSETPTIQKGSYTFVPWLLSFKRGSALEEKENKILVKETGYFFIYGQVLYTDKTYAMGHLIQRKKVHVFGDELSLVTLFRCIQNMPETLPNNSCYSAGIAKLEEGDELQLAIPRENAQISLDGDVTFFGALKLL
For assay [11], the target named is T1, biotinylated hBLyS-ECD (human, UniProt Q9Y275 134-285, biotinylated with Biotin-X-X-NHS (molar ratio 7:1); sites not stated).
T1 construct: also called biotinylated immunogen; biotinylated hBLvS-ECD
T1 sequence (Q9Y275 134-285): as the sequence (Q9Y275 134-285) above
The assay is described as follows: ELISA on captured biotinylated hBLyS-ECD; antibody 0 nM (background).

For assay [12], the target named is T1, biotinylated hBLyS-ECD. The assay is described as follows: ELISA on captured biotinylated hBLyS-ECD; antibody 66.7 nM.
For assay [13], the target named is T1, biotinylated hBLyS-ECD. The assay is described as follows: BAFF R-coated ELISA, biotinylated hBLyS-ECD bound in presence of antibody 0 nM.
The target of assay [14] is T1, biotinylated hBLyS-ECD. In words: BAFF R-coated ELISA, biotinylated hBLyS-ECD bound in presence of antibody 100 nM.
Assay [15] deals with T1, biotinylated hBLyS-ECD. The assay is described as follows: BAFF R-coated ELISA, biotinylated hBLyS-ECD bound in presence of antibody 0.8 nM.
For assay [16], the target named is T1, biotinylated hBLyS-ECD. In words: BAFF R-coated ELISA, biotinylated hBLyS-ECD bound in presence of antibody 0.032 nM.
The target in assay [17] is T2, biotinylated hBLyS-ECD (human, UniProt Q9Y275 134-285, biotinylated with Biotin-X-X-NHS (molar ratio 7:1), sites not stated).
T2 construct: The hBLyS-ECD of Embodiment 1 after biotinylation (Embodiment 2); also called biotinylated immunogen; BLyS protein; not shown: His tag of the pCPC vector
T2 sequence (Q9Y275 134-285): as above
In words: ELISA: biotinylated hBLyS-ECD captured on streptavidin, antibody titrated, HRP secondary antibody. How it is done: Streptavidin was first diluted to a final concentration of 1.0 μg/mL with PBS, and then 50 μL of diluted streptavidin per well was aliquoted into 96-well ELISA plate, which was subsequently sealed with plastic film and incubated at 4° C. overnight. On the next day the plate was washed four times with the plate washing buffer [PBS buffer containing 0.05% (v/v) Tween20] and added with the blocking solution [PBS buffer containing 0.05% (v/v) Tween20 and 1% (w/w) BSA] and blocked for 2 hours at 37° C. The blocking solution was removed, the biotinylated hBLyS-ECD prepared in Embodiment 2 was diluted with PBS to a final concentration of 50 ng/mL and then aliquoted into the 96-well ELISA plate at 50 μL per well and incubated for 1 hour at 37° C. After rinsing the plate four times with the plate washing buffer [PBS buffer containing 0.05% (v/v) Tween20], 100 μl of the purified lead antibody harvested in Embodiment 1 and 2 was pipetted into each well. After incubation for 1 hour at 37° C., the plate was rinsed four times with the plate washing buffer [PBS buffer containing 0.05% (v/v) Tween20]. HRP-labeled (horseradish peroxidase) secondary antibody (purchased from Sigma) was added in and incubated at 37° C. for 1 hour. […] A₄₅₀ₙₘ values were read via an ELISA plate reader (SpectraMax M5e purchased from Molecular Devices) and the results were shown in FIGS. 5A-5B and Table 10.

Take mIgG Control (antibody): the MFI was 19.7 MFI in assay [1]; 30.9 MFI in assay [2]; 31.6 MFI in assay [3]; 19.8 MFI in assay [7]; 19.8 MFI in [8]; 33.6 MFI in assay [9]. In addition, the MFI in assay [10] was 21.6 MFI. Moreover, the OD450 nm in [4] stood at 0.0562; in assay [5] it was 1.42 OD450 nm; in assay [6], 1.45 OD450 nm.

For hIgG Control (antibody), the MFI in assay [1] amounted to 22.8 MFI; in assay [2], 32.3 MFI; in assay [3], 32.9 MFI; in assay [7] it was 20.7 MFI; in assay [8], 22.4 MFI; in assay [9], 52 MFI. The MFI in [10] was determined as 44.2 MFI. The values for the OD450 nm in assay [4], in assay [5] and in assay [6] were 0.0905, 1.13 OD450 nm and 1.11 OD450 nm, respectively.

B1: c8E7D9C7F5 (antibody, V domains shown)
VH: QVQLQQSGVELARPGASVKLSCKASGYTFTSYGISWVKQRTGQALEWIGEIYPRSGNTYYNEKFKGKATLTADKSSSTAYMELRSLTSEDSAVYFCARSGPITTLVATDYGMDYWGQGTSVTVSS
VL: DIVLTQSPASLAVSLGQRATISCRASKSVSTSSYSYMHWYQQKPGQPPKLLIKFASNLESGVPARFSGSGSGTDFTLNIHPVEEEDAATYYCQHSREFPYTFGGGTKLEIK
notes: also called chimeric antibody c8E7D9C7F5
On to B1, for which the OD450 nm with biotinylated hBLyS-ECD [11] stood at 0.322 OD450 nm; with biotinylated hBLyS-ECD [12], 3.31 OD450 nm; with biotinylated hBLyS-ECD [13] it was 1.95 OD450 nm; with biotinylated hBLyS-ECD [14], 0.53 OD450 nm; in the assay with biotinylated hBLyS-ECD [15], 1.56 OD450 nm; with biotinylated hBLyS-ECD [16], 1.97 OD450 nm.

B2: L9G7 (antibody, human IgG1, V domains shown)
VH: QIQLVQSGAEVKKPGASVKVSCKASGYTFTSYGISWVRQAPGQGLEWMGWISAYNGNTNYAQKLQGRVTMTTDTSTSTAYMELRSLRSDDTAVYYCARTYYDILTGYYYYGMDVWGQGTTVTVSS
VL: EIVLTQSPGTLSLSPGERATLSCRTSQSVDTYLAWYQQKPGQAPRLLIYDASNRATGIPARFSGSGSGTDFTLTISSLEPEDFAVYYCQQRSNWPLTFGGGTKVEIK
What is called EC50 (read off the curve) is the midpoint of the concentration-response curve. Take B2: the “EC50 (read off the curve)” value with biotinylated hBLyS-ECD [17] is about 0.2 nM.

B3: c97A3C2H4 (antibody, V domains shown)
VH: EVKLVESGGGLVQPGGSLKLSCAASGFTFSTYTMSWVRQTPEKRLEWVAYISYGGGSTSYPDTVKGRFTISRDNAKNTLYLQMSSLKSEDTAIYYCTRHVTVVENSMDYWGQGTSVTVSS
VL: DILLTQSPDILSVSPGERVSFSCRASQSIGTSIHWYQQRTNGSPRLLIKYVSESFSGTPSRFSGSGSGTAFTLTINSVESEDIADYYCQQTHSWPWTFGGGTKLEIK
notes: also called chimeric antibody c97A3C2H4
Regarding B3, the OD450 nm in the assay with biotinylated hBLyS-ECD [11] is 0.165 OD450 nm; in the assay with biotinylated hBLyS-ECD [12] it was 3.3 OD450 nm; with biotinylated hBLyS-ECD [13], 1.91 OD450 nm; in the assay with biotinylated hBLyS-ECD [14] it was 0.474 OD450 nm; with biotinylated hBLyS-ECD [15] it was 1.47 OD450 nm; with biotinylated hBLyS-ECD [16], 1.84 OD450 nm.

B4: L1D12 (antibody, human IgG1, V domains shown)
VH: QVQLVQSGGGLVQPGGSLRLSCAASGFTVSSNYMSWVRQAPGKGLEWVSVIYSGGSTYYADSVKGRFTISRDNSKNTLYLQMNSLRAEDTAVYYCARGFHDILTGYGMDVWGQGTTVTVSS
VL: SSELTQDPAVSVALGQTVRITCQGDSLRNYYAGWYQQKPGQAPVLVIYGKNNRPSGIPDRFSGSSSGNTASLTITGTQAEDEADYYCSSRDNSGTHLVEFGGGTKLTVL
notes: also called LID12
For the molecule B4, in the assay with biotinylated hBLyS-ECD [17], the concentration giving a half-maximal response (EC50 (read off the curve)) was about 0.1 nM.
